Experimental data published in patent US20260217847A1 (NANJING REGENECORE BIOTECH, published 2026).
Numbering of substitutions follows the chain as printed.

B1: anti-humanized TfR1 protein single-domain antibody 2H7 (VHH clone, crude extract from pMECS) (VHH, not shown: small tags and cut ends)
VHH: ESGGGLVQPGESLRLSCVASGSIWSIYTMGWYRQAPGKQRDFVASITGDSTRTLESVKDRFIISRDNTKNTLYLQMNSLKPEDTAVYYCQAITSLGEYWGQGTQVTVSS
B2: anti-humanized TfR1 protein single-domain antibody 4D11 (VHH clone, crude extract from pMECS) (VHH, not shown: small tags and cut ends)
VHH: B1 VHH with G48R, T68A, Q90H
B3: anti-humanized TfR1 protein single-domain antibody 7G5 (VHH clone, crude extract from pMECS) (VHH, not shown: small tags and cut ends)
VHH: ESGGGSVQPGGSLRLSCAVSGSIFSIDTMAWYRQAPGKQRELVAAITKGGSRNYADSVKGRFTISRDNAKNTVYLQMNSLKPEDTAVYYCLADRLFRDRSWGQGTQVTVSS
B4: anti-humanized TfR1 protein single-domain antibody 8E10 (VHH clone, crude extract from pMECS) (VHH, not shown: small tags and cut ends)
VHH: ESGGGLVQAGGSLRLSCAFSGPPFSTYGMGWFRQAPGKEREFVATISGSGFTTTYADSVKGRFTISRDNAKNTVYLQMNSLKPGDTAVYYCAAGVLDGTNWHEYDYWGQGTQVTVSS
B5: anti-humanized TfR1 protein single-domain antibody 5A3 (VHH clone, crude extract from pMECS) (VHH, not shown: small tags and cut ends)
VHH: ESGGGLVQAGGSLTLSCAVSRRAFNTKAMGWFRQAPGKEREFVATISWSGFSTNYADSVKGRFTISRDNAKNTVYLQMNSLKPGDTAVYYCAAGVLDGTNWHEYDYWGQGTQVTVSS
B6: anti-humanized TfR1 protein single-domain antibody 8B8 (VHH clone, crude extract from pMECS) (VHH, not shown: small tags and cut ends)
VHH: B4 VHH with A9P, A18V, F19A, P22R, P23T, Y27S, G48W, G98S, N100S
B7: anti-humanized TfR1 protein single-domain antibody 5D1 (VHH clone, crude extract from pMECS) (VHH, not shown: small tags and cut ends)
VHH: ESGGGLVQPGESLRLSCVASGSIWSIYTMGWYRQAPGKQRDFVASITRDGGRRHAESVKDRFTISRDNAKNTLYLQMNSLKPEDTAVYSCLAITSLGEYWGQGTQVTVSS
B8: anti-humanized TfR1 protein single-domain antibody 4C5 (VHH clone, crude extract from pMECS) (VHH, not shown: small tags and cut ends)
VHH: B7 VHH with V18A, K38L, A44G, T47A, D49E, H54Y, L73M, P82R, S89Y, L91N
B9: anti-humanized TfR1 protein single-domain antibody 7A3 (VHH clone, crude extract from pMECS) (VHH, not shown: small tags and cut ends)
VHH: B7 VHH with G50S, H54Y, M77T, S89Y, L91H
B10: anti-humanized TfR1 protein single-domain antibody 5D3 (VHH clone, crude extract from pMECS) (VHH, not shown: small tags and cut ends)
VHH: ESGGGLVEPGGSLRLSCAASGNIFSINNMYWHRQAPGKQRELVGGITRGGITNYVDSVKGRFTISRDNAKNTVYLQMNSLKPEDTAVYFCNAHPWRLGIADYWGQGTQVTVSS
B11: anti-humanized TfR1 protein single-domain antibody 7D10 (VHH clone, crude extract from pMECS) (VHH, not shown: small tags and cut ends)
VHH: ESGGGLVQPGGSLRLSCATSGGTFEMYAMAWFRQAPGKDREGVAGFSWRDSSTTYYSDSVKGRFTISRDNAKNTVYLQMNSLKPEDTAVYYCAARPYVSRWSESSGYDYWGQGTQVTVSS
B12: anti-humanized TfR1 protein single-domain antibody 7G10 (VHH clone, crude extract from pMECS) (VHH, not shown: small tags and cut ends)
VHH: ESGGGLVQAGASLKLSCNGSGRTFISYAMGWFRQAPGKQREFVAAERWSGSGIYYADSLKGRFTISRDNAKNTVYLEMNNLKPEDTAVYYCAAREGGLLHVATSYDYWGQGTQVTVSS

Target: T1, human recombinant TfR1 protein (amino acids 89-760) (human, UniProt P02786 89-760)
T1 construct: range 89-760; Expressed in 293F cells from pcDNA3.4; also called humanized TfR1 protein; humanized recombinant TfR1 protein
Assay: ELISA of crude extracts on coated TfR1, anti-HA HRP; positive clone = OD at least 5-fold over control
Experimental: Crude antibody extracts were obtained using osmotic lysis. 100 μL of the obtained crude antibody extract was transferred to the TfR1-coated ELISA plate and incubated at room temperature for 1 hour. Unbound antibodies were washed away with PBST buffer with Tween-20 (PBS purchased from Sangon Biotech, Cat. No. B548117-0500; Tween-20 purchased from Beyotime Biotechnology, Cat. No. ST825). 100 μL of 1:2000-diluted mouse anti-HA horseradish peroxidase (HRP)-conjugated antibody (Thermo Fisher) was added and incubated at room temperature for 1 hour. After washing with PBST buffer to remove unbound antibodies, HRP chromogenic solution was added, followed by a 15-minute reaction at 37° C. With the stop solution added, the absorbance was read at 450 nm using a microplate reader (purchased from TECAN).

T1 sequence (P02786 89-760 limits assumed): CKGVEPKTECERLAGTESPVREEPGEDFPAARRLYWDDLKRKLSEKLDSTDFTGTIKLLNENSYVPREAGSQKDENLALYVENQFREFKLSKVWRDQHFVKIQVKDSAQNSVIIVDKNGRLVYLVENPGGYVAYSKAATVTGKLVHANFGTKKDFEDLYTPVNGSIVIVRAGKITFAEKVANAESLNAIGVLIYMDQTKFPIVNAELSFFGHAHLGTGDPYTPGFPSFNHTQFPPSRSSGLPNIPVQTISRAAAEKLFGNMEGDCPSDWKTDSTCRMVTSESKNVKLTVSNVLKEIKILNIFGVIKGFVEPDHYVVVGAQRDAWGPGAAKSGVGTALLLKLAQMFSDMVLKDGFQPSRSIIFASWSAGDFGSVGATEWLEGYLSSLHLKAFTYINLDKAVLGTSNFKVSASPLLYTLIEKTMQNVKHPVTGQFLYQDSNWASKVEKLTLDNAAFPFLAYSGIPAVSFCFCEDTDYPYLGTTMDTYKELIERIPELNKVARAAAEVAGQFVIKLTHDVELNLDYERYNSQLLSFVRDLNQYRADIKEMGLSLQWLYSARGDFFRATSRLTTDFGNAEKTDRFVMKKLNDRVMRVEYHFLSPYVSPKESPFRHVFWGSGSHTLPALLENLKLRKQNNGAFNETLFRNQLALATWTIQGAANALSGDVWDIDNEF

Binder	binding result
B1	binds
B2	binds
B3	binds
B4	binds
B5	binds
B6	binds
B7	binds
B8	binds
B9	binds
B10	binds
B11	binds
B12	binds
